From the supplement of paper PMC7877785 come the findings set out here.

± gives the uncertainty stated by the source.

A short description of this series: self-splicing fitness, log relative to wild type (ln ratio); higher = more splicing; Tetrahymena group I intron in knt gene, E. coli kanamycin selection, DiMSum; sequences stand for … in CUCUCU…GGAGGGAAAAGUUAUCAGGCAUGCACCUGGUAGCUAGUCUUUAAACCAAUAGAUUGCAUCGGUUUAAAAGGCAAGACCGUCAAAUUGCGGGAAAGGGGUCAACAGCCGUUCAGUACCAAGUCUCAGGGGAAACUUUGAGAUGGCCUUGCAAAGGGUAUGGUAAUAAGCUGACGGACAUGGUCCUAACCACGCAGCCAAGUCCUAAGUCAACAGAUCUUCUGUUGAUAUGGAUGCAGUUCACAGACUAAAUGUCGGUCGGGGAAGAUGUAUUCUUCUCAUAAGAUAUAGUCGGACCUCUCCUUAAUGGGAGCUAGCGGAUGAAGUGAUGCAACACUGGAGCCGCUGGGAACUAAUUUGUAUGCGAAAGUAUAUUGAUUAGUUUUGGAGUACUCGUGGUCG
Summed up: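 A randomised library covering all eight P1ex-region intron nucleotides was built with the intron in the knt kanamycin-resistance gene on pET-22b(+) and held in E. coli BL21(DE3). Cells were grown overnight at 37°C or 30°C on LB agar, with or without 25 μg/mL kanamycin, plus 100 μg/mL carbenicillin, 50 μM IPTG and 0.2% rhamnose, and pooled colonies were amplicon-sequenced on an Illumina HiSeq 2500. DiMSum fitness is the error-weighted combination of wild-type-normalised replicate fold changes, kanamycin versus none.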

CGGGAGCAAUAUUACGGGCA: the “self-splicing fitness (ln)” value (37 °C) was -1.14 ± 0.42.
For AAUAAGCAAUAUUACGUAUC, the “self-splicing fitness (ln)” value is, setting by setting: (30 °C) -1.6 ± 0.087; (37 °C) -1.36 ± 0.11.
Taken in the same sequence, the figures for ACUGAGCAAUAUUACGGAGU were -2.8 ± 0.41 and -1.78 ± 0.33.
Taken in the same sequence, the figures for AGACAGCAAUAUUACGGUUC were -3.34 ± 0.18 and -1.05 ± 0.13.
Consider UGUCAGCAAUAUUACGAGCG, for which the “self-splicing fitness (ln)” value was 0.308 ± 0.083 (30 °C) and 0.59 ± 0.11 (37 °C).
Taken in the same sequence, the figures for AAUUAGCAAUAUUACGAUUU were -0.494 ± 0.11 and -0.268 ± 0.13.
Taken in the same sequence, the figures for UAGCAGCAAUAUUACGGGCC were -1.45 ± 0.21 and -2.55 ± 0.36.
Taken in the same sequence, the figures for ACGUAGCAAUAUUACGCGGG were -2.32 ± 0.12 and -0.863 ± 0.11.
Take UCCGAGCAAUAUUACGGACU: the “self-splicing fitness (ln)” value is -3.56 ± 0.21 (30 °C) and -2.02 ± 0.14 (37 °C).
As for UGCCAGCAAUAUUACGUAGC, the “self-splicing fitness (ln)” value by setting is: (30 °C) -3.9 ± 0.37; (37 °C) -1.64 ± 0.17.
In the same order, the values of UUCUAGCAAUAUUACGUUGC are -4.72 ± 0.39 and -2.64 ± 0.22.
As for UAUCAGCAAUAUUACGGAGC, the “self-splicing fitness (ln)” value is, setting by setting: (30 °C) -3.14 ± 0.17; (37 °C) -3.71 ± 0.19.
Take UGAUAGCAAUAUUACGCGUG: the “self-splicing fitness (ln)” value (30 °C) was -1.18 ± 0.072 and the “self-splicing fitness (ln)” value (37 °C) is -0.0417 ± 0.078.
For CGAGAGCAAUAUUACGUGCU, the “self-splicing fitness (ln)” value (30 °C) is -4.22 ± 0.46.
For AGCCAGCAAUAUUACGCAGA, the “self-splicing fitness (ln)” value by setting is: (30 °C) -3.39 ± 0.18; (37 °C) -2.94 ± 0.18.
In the same order, the values of GGCGAGCAAUAUUACGAUCC are -0.772 ± 0.092 and -0.128 ± 0.12.
AACGAGCAAUAUUACGGAUA: the “self-splicing fitness (ln)” value was -2.98 ± 0.22 (30 °C) and -1.85 ± 0.29 (37 °C).
Taken in the same sequence, the figures for GAUCAGCAAUAUUACGCCCA were -0.563 ± 0.2 and -0.558 ± 0.28.
Taken in the same sequence, the figures for CGACAGCAAUAUUACGGAUG were -0.977 ± 0.051 and -0.0449 ± 0.059.
On to AGUGAGCAAUAUUACGCGCG, for which the “self-splicing fitness (ln)” value was -1.28 ± 0.16 (30 °C) and -1.83 ± 0.22 (37 °C).
In the same order, the values of AACUAGCAAUAUUACGCAGA are -3.43 ± 0.37 and -0.413 ± 0.15.
In the same order, the values of CUGAAGCAAUAUUACGCGUC are -3.62 ± 0.33 and -3.55 ± 0.35.
On to AUUUAGCAAUAUUACGACGG, for which the “self-splicing fitness (ln)” value runs as follows: (30 °C) -1.79 ± 0.18; (37 °C) -0.641 ± 0.16.
Consider GGUAAGCAAUAUUACGGUAU, for which the “self-splicing fitness (ln)” value is, setting by setting: (30 °C) -1.32 ± 0.074; (37 °C) -1.44 ± 0.11.
For UACUAGCAAUAUUACGUUCC, the “self-splicing fitness (ln)” value (30 °C) was -2.22 ± 0.32 and the “self-splicing fitness (ln)” value (37 °C) was -2.33 ± 0.35.
Taken in the same sequence, the figures for GAAUAGCAAUAUUACGAGUU were -2.2 ± 0.084 and -0.978 ± 0.093.
UGAAAGCAAUAUUACGCCAA: the “self-splicing fitness (ln)” value runs as follows: (30 °C) -1.13 ± 0.15; (37 °C) -0.806 ± 0.18.
With GAUAAGCAAUAUUACGUAUC, the “self-splicing fitness (ln)” value is, setting by setting: (30 °C) -3.9 ± 0.18; (37 °C) -2.67 ± 0.27.
As to GAGAAGCAAUAUUACGUAUC, the “self-splicing fitness (ln)” value (30 °C) was -3.78 ± 0.37 and the “self-splicing fitness (ln)” value (37 °C) is -3.21 ± 0.35.
On to ACCGAGCAAUAUUACGUAGA, for which the “self-splicing fitness (ln)” value by setting is: (30 °C) -4.48 ± 0.29; (37 °C) -2.69 ± 0.18.
Taken in the same sequence, the figures for UGUCAGCAAUAUUACGAGUC were -3.49 ± 0.26 and -2.78 ± 0.25.
In the same order, the values of GCAUAGCAAUAUUACGUCAU are -3.5 ± 0.16 and -1.89 ± 0.098.
Taken in the same sequence, the figures for CCCGAGCAAUAUUACGGCGA were -2.7 ± 0.2 and -1.19 ± 0.12.
As to CUCAAGCAAUAUUACGGGUG, the “self-splicing fitness (ln)” value by setting is: (30 °C) -1.43 ± 0.059; (37 °C) -1.2 ± 0.073.
In the same order, the values of AUCGAGCAAUAUUACGAGGU are -3.26 ± 0.3 and -2.93 ± 0.4.
Take CCAGAGCAAUAUUACGCUGU: the “self-splicing fitness (ln)” value (30 °C) was -3.95 ± 0.44.
In the case of AUUAAGCAAUAUUACGCUAU, the “self-splicing fitness (ln)” value is, setting by setting: (30 °C) -3.62 ± 0.26; (37 °C) -1.73 ± 0.26.
As for GAGAAGCAAUAUUACGUUGG, the “self-splicing fitness (ln)” value reads like this: (30 °C) -2.35 ± 0.15; (37 °C) -2.66 ± 0.21.
